# From US20230303667A1 (EMORY UNIVERSITY, published 2023)
# T1: Ebola Zaire (Kikwit strain) glycoprotein (Ebola Zaire (Kikwit strain), UniProt P87666 33-676)
# T1 sequence: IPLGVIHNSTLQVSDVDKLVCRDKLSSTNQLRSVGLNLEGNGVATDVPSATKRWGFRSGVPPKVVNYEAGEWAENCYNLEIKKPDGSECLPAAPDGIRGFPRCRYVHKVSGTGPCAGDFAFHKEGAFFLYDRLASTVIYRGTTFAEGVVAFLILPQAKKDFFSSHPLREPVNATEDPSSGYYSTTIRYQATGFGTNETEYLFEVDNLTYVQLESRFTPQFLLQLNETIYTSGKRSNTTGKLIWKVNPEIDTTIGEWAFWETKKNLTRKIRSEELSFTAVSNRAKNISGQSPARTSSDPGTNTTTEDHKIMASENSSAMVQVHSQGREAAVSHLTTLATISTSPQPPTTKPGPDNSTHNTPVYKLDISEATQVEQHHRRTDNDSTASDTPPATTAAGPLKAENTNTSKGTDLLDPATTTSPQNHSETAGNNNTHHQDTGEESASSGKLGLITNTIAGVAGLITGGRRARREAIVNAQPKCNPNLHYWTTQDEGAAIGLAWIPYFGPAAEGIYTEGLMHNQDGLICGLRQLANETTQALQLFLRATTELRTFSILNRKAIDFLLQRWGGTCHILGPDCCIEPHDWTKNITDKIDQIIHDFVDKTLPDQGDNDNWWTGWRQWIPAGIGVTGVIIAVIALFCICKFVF
# Target: T1, Ebola Zaire (Kikwit strain) glycoprotein
# Assay: cell-based or functional assay
row,Binder,PRNT50 (ug/ml) for Ebola Zaire (Kikwit strain)
1,"2.1.1D07 (antibody, V domains shown) VH: EVQLLESGGGLVQPGGSLRLSCAASGFTFSTYGMSWVRQAPGKGLEWVSGISGSGGITYYADSVRGRFTISRDNSKNTLYLRMNSLRAEDTAVYYCAKVGEYYDFWSGYSPFEYWGQGTL VL: EIVLTQSPGTLSLSPGERATLSCRASQSVSSSYLAWYQQKPGQAPRLLIYGAFNRATGIPDRFSGSGSGTDFTLTISRLEPEDFAVYYCQLYGSSPWTFGQGTKVEIK",6.25 µg/mL
2,"2.1.1D05 (antibody, V domains shown) VH: EVQLVESGGGLVKPGGSLRLSCAASGFTFSNAWMNWVRQAPGKGLEWVGRIKSKTDGGAADYAAPVKGRFTISRDDSKNTLYLQMNSLKTEDTAVYFCTTVYRYNYDSVWGQGTLVTVSS VL: QSVLTQPPSVSGAPGQRVTISCTGSSSNIGAGYDVYWYQQLPGTAPKLLIYGNSNRPSGVPDRFSGSKSGTSASLAITGLQAEDEADYYCQSFDSSLRDSWVFGGGTKLTVL",3.13 µg/mL
3,"9.6.3D06 (antibody, V domains shown) VH: EVQLLESGGGLVQPGGSLRLSCAASGFTFSKYAMIWVRQAPGKGLQWVAGINKSGGRTYYADSVRGRFTISRDNSKNTLYLQMKSLRADDTAMYYCAKEGSPLSDVLLVAAPFGWFDPWGQGTLVTVSS VL: DIQMTQSPSTLSASVGDRVTITCRASQRINNLVAWYQQKPGKAPKVMIYDASSLKSGVPSRFSGSGSGTEFTLTISSLQPDDFATYFCQQYDTDSGWTFGQGTKVEIK",1.57 µg/mL
4,"5.1.10B3 (antibody, V domains shown) VH: EVQLVESGGGLVQPGGSLRLSCAASGFTFRSYDMHWVRQATGKGLEWVSAIGTAGDTYYPGSVKGRFTISRENAKNSLYLQMNSLRAEDTAVYYCARVRFGDTAVDYWGQGTLVTVSS VL: DIQMTQSPSSLSASVGDRVTITCRASQSISSFLNWHQQKPGKAPKLLIYAASSLQSGVPSRFSGSGSGTDFTLTISSLQPEDFAIYYCQQSYISPFTFGPGTKVDIK",3.13 µg/mL
5,"5.6.1A02 (antibody, V domains shown) VH: EVQLVESGGGLIQPGGSLRLSCAASGFAVRSNYLSWVRQAPGKGLEWVSLIYSGGLTAYADSVEGRFTISRDNSKNTLYLQMNSLRVEDTALYYCARVASSAGTFYYGMDVWGQGTTVTVSS VL: not shown",0.195 µg/mL
